# Assay results from patent US6436691B1, “Chemical compounds” (Zeneca Limited, priority 1995, dated 2002).
# Tests used:
# [1] = HCPB activity of COS-7 cell supernatants against Hipp-Arg (5 h assay); format: biochemical; conditions: COS-7 cell supernatant 250 μl
# Method: Measurements were carried out at 37° C. in 0.25 mM Tris HCl buffer, pH 7.5 using 1 cm path length cuvettes in a total volume of 1.0 ml using a Perkin Elmer Lambda 2 spectrophotometer. Km and Vmax values were calculated using the ENZFITTER software programme (Biosoft, Perkin Elmer). Kcat was calculated from Vmax by dividing by the enzyme concentration in the reaction mixture.
# For expression in eukaryotic cells, vectors containing genes capable of expressing preHCPB and the prepro sequence were cotransfected into COS-7 cells. COS cells are an African green monkey kidney cell line, CV-1, transformed with an origin-defective SV40 virus and have been widely used for short-term transient expression of a variety of proteins because of their capacity to replicate circular plasmids containing an SV40 origin of replication to very high copy number. There are two widely available COS cell clones, COS-1 and COS-7. The basic methodology for transfection of COS cells is described by Bebbington in Methods: A Companion to Methods in Enzymology (1991) 2, p. 141. […] Cell supernatants (250 μl) were analysed for HCPB activity against Hipp-Arg (5 h assay) as described in Reference Example 3. […]
# [2] = Conversion of Hipp-Asp to hippuric acid by mutant and native human CPB, HPLC assay (Example 6); format: biochemical; conditions: 5 hr at 37° C.; 4 μg enzyme; 0.5 mM substrate
# Method: (§1) Purified mutants of human CPB (D253K and D253R; Examples 1-3) and native human CPB, produced as described in Reference Example 12, were assayed for their ability to convert either hippuryl-L-aspartic acid (Hipp-Asp—Reference Example 2), hippuryl-L-glutamic acid (Hipp-Glu—Reference Example 1) or hippuryl-L-arginine (Sigma Chemical Company—cat no. H6625) to hippuric acid using a HPLC based assay.
# (§2) The reaction mixture (250 μl) contained 4 μg human CPB (native or mutant) and 0.5 mM Hipp-Asp or Hipp-Glu in 0.025 M Tris-HCL, pH 7.5. Samples were incubated for 5 hr at 37° C. The reactions were terminated by the addition of 250 μl of 80% methanol, 20% distilled water, 0.2% trifluoro acetic acid and the amount of hippuric acid generated was quantified by HPLC.
# (§3) HPLC analysis was carried out using a Hewlett Packard 1090 Series 11 (with diode array) HPLC system. Samples (50 μl) were injected onto a Hichrom Hi-RPB column (25 cm) and separated using a mobile phase of 40% methanol, 60% distilled water, 0.1% trifluoro acetic acid at a flow rate of 1 ml/min. The amount of product (hippuric acid) produced was determined from calibration curves generated with known amounts of hippuric acid (Sigma-H6375). The results are shown in Table 1 and are expressed as the percentage conversion of substrate into product in 5 hr at 37° C. with 4 μg enzyme.
# [3] = Conversion of Hipp-Glu to hippuric acid by mutant and native human CPB, HPLC assay (Example 6); format: biochemical; conditions: 5 hr at 37° C.; 4 μg enzyme; 0.5 mM substrate
# Method: as §1, §2, §3
# [4] = Conversion of Hipp-Arg to hippuric acid by mutant and native human CPB, HPLC assay (Example 6); format: biochemical; conditions: 5 hr at 37° C.; 4 μg enzyme
# Method: as §1, §2, §3
# [5] = Km and kcat of HCPB mutants with Hipp-Asp (Example 7); format: biochemical; conditions: Hipp-Asp 0.25-5.0 mM; pH 7.5; 5 h at 37° C.
# Method: Hipp-Glu and Hipp-Asp were diluted in range 0.25-8.0 mM and 0.25-5.0 mM respectively in 0.025 M Tris-HCL buffer, pH 7.5. Where necessary substrate samples were adjusted to pH 7.5 with 1M NaOH.
# Samples were incubated for 5 h at 37° C. Reactions were terminated by the addition of 500 μl methanol/distilled water (80/20) containing 0.2% TFA. The amount of hippuric acid produced was quantified by HPLC as described in Example 6.
# Km and Vmax values were calculated using the ENZFITTER software programme (Biosoft, Perkin Elmer).
# [6] = Km and kcat of HCPB mutants with Hipp-Glu (Example 7); format: biochemical; conditions: Hipp-Glu 0.25-8.0 mM; pH 7.5; 5 h at 37° C.
# How it was run: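 Hipp-Glu (0.25-8.0 mM) or Hipp-Asp (0.25-5.0 mM) in 0.025 M Tris-HCl, pH 7.5, was incubated with the mutant enzymes for 5 h at 37° C. Reactions were quenched with methanol/water containing 0.2% TFA, and hippuric acid was quantified by HPLC. Km and Vmax were obtained by curve fitting.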
# [7] = Conversion of glutamic acid prodrug to intermediate by mutant and native HCPB, HPLC assay (Example 8); format: biochemical; conditions: prodrug 0.25-5.0 mM
# [8] = Conversion of Hipp-Glu by purified HCPB mutants, 30 minutes, HPLC (Example 17); format: biochemical; conditions: 0.5 mM substrate, 30 minutes at 37° C.
# How it was run: (§4)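 Purified human CPB mutants were incubated with hippuryl-L-Arg, -Glu or -Asp for 30 min at 37 °C, then stopped with acidic aqueous methanol. Hippuric acid was quantified by HPLC (20% methanol/50 mM phosphate pH 6.5, 230 nm). Values are % substrate converted to hippuric acid in 30 min.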
# [9] = Conversion of Hipp-Asp by purified HCPB mutants, 30 minutes, HPLC (Example 17); format: biochemical; conditions: 0.5 mM substrate, 30 minutes at 37° C.
# How it was run: as §4
# [10] = Conversion of Hipp-Arg by purified HCPB mutants, 30 minutes, HPLC (Example 17); format: biochemical; conditions: 0.5 mM substrate, 30 minutes at 37° C.
# How it was run: as §4
# [11] = Conversion of Hipp-Glu by periplasmic shockate of HCPB mutants, 24 h (Example 18); format: biochemical; conditions: shockate concentration in reaction mixture 50 %; 24 h at 37° C.
# [12] = Conversion of Hipp-Asp by periplasmic shockate of HCPB mutants, 24 h (Example 18); format: biochemical; conditions: shockate concentration in reaction mixture 50 %; 24 h at 37° C.
# How it was run: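 Crude E. coli periplasmic shockate of each HCPB mutant was incubated with substrate for 24 h at 37° C, as neat or diluted shockate (1 in 10 or 1 in 100 for [G251T,D253K]HCPB; 1 in 50 for other mutants). Hippuric acid formed was quantified by HPLC. Values are percent conversion of substrate to product in 24 h.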
# [13] = Conversion of Hipp-Arg by periplasmic shockate of HCPB mutants, 24 h (Example 18); format: biochemical; conditions: shockate concentration in reaction mixture 50 %; 24 h at 37° C.
# Method: The activity of [G251T,D253K]HCPB was measured using the assay conditions described in Example 17 but using either 50 μl of a neat or 1 in 10 or 1 in 100 dilution of [G251T,D253K]HCPB crude E.coli periplasmic shockate (shockate) sample in place of purified enzyme. Samples were incubated for 24 h at 37° C. […] For other HCPB mutants, the reaction volume was 250 μl and contained 125 μl of neat shockate or 1 in 50 dilution of shockate. The shockate samples were prepared as described in Example 16. The amount of Hippuric acid produced in 24 h was quantified by HPLC as described in Example 17 and the results are shown in Table 6 and are expressed as the percentage conversion of substrate into product in 24 h at 37° C.
# [14] = Conversion of prodrug of Example 24 to drug of Example 25 by HCPB mutants, HPLC (Example 20); format: biochemical; conditions: enzyme 15 μg/ml; 0.5 mM prodrug of Example 24; 5 minutes at 37° C.
# How it was run: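 Reactions stopped with MeCN plus 0.2% TFA, with [Q54R,D145A,D253K] and [G251T,D253K]HCPB mutants used at 0.75 μg per reaction. Drug formed from prodrug quantified by HPLC (70% MeCN, 30% water, 0.1% TFA; detection 260 nm) against drug calibration curves.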
# [15] = system: LoVo colorectal tumour cells
molecule,measurement,setting,value
"HCPB: mature HCPB in supernatant of COS-7 cells co-transfected with preHCPB and prepro sequence plasmids (protein, UniProt P15086 111-417, looked up) Carboxypeptidase B: ATGHSYEKYNKWETIEAWTQQVATENPALISRSVIGTTFEGRAIYLLKVGKAGQNKPAIFMDCGFHAREWISPAFCQWFVREAVRTYGREIQVTELLDKLDFYVLPVLNIDGYIYTWTKSRFWRKTRSTHTGSSCIGTDPNRNFDAGWCEIGASRNPCDETYCGPAAESEKETKALADFIRNKLSSIKAYLTIHSYSQMMIYPYSYAYKLGENNAELNALAKATVKELASLHGTKYTYGPGATTIYPAAGGSDDWAYDQGIRYSFTFELRDTGRYGFLLPESQIRATCEETFLAIKYVASYVLEHLY",Hipp-Arg substrate hydrolysed,[1]; co-transfection with prepro sequence,61%
"D253K HCPB: mature HCPB with aspartate 253 changed to lysine, C-terminal (His)6-c-myc tag (protein, UniProt P15086 111-417, looked up, variant D253K, (His)6-c-myc tag) Carboxypeptidase B: ATGHSYEKYNKWETIEAWTQQVATENPALISRSVIGTTFEGRAIYLLKVGKAGQNKPAIFMDCGFHAREWISPAFCQWFVREAVRTYGREIQVTELLDKLDFYVLPVLNIDGYIYTWTKSRFWRKTRSTHTGSSCIGTDPNRNFDAGWCEIGASRNPCDETYCGPAAESEKETKALADFIRNKLSSIKAYLTIHSYSQMMIYPYSYAYKLGENNAELNALAKATVKELASLHGTKYTYGPGATTIYPAAGGSKDWAYDQGIRYSFTFELRDTGRYGFLLPESQIRATCEETFLAIKYVASYVLEHLY",Hipp-Asp (% conversion to Hippuric acid),[2],78%
same,Hipp-Glu (% conversion to Hippuric acid),[3],91%
same,Hipp-Arg (% conversion to Hippuric acid),[4],<2%
same,Km,[5],2.7 mM
same,"kcat, Hipp-Asp",[5],0.26 s⁻¹
same,Km,[6],5.3 mM
same,"kcat, Hipp-Glu",[6],3.8 s⁻¹
same,"kcat, glutamic acid prodrug",[7],0.016 s⁻¹
same,"Vmax, glutamic acid prodrug",[7]; enzyme 0.25 mg/ml,0.000117 mM/s
same,Hipp-Glu (% conversion),[8]; enzyme 2.5 μg/ml,14.6%
same,Hipp-Glu (% conversion),[8]; enzyme 25 μg/ml,79%
same,Hipp-Asp (% conversion),[9]; enzyme 2.5 μg/ml,2.9%
same,Hipp-Asp (% conversion),[9]; enzyme 25 μg/ml,22%
same,Hipp-Arg (% conversion),[10]; enzyme 2.5 μg/ml,0%
same,Hipp-Arg (% conversion),[10]; enzyme 25 μg/ml,0%
same,Hipp-Glu (% conversion),[11],7.4%
same,Hipp-Asp (% conversion),[12],2.0%
same,Hipp-Arg (% conversion),[13],0%
same,Prodrug Hydrolysis (%),[14],70.4%
same,drug concentration at end of reaction,[14],0.352 mM
same,cytotoxicity of the glutamic acid prodrug with enzyme added,[15]; 100 μg enzyme added to assay wells containing glutamic acid prodrug,comparable to that of the active drug
same,toxicity of prodrug of Example 21 with enzyme added,"[15]; 2.4 to 11.75 μg/ml enzyme added to prodrug 500 μM, FIG. 16",matched that seen with 200 μM of the active drug
"proHCPB: proHCPB expressed from COS-7 cells (plasmid pMF49), activated with trypsin (protein, UniProt P15086 16-417, looked up, pro-form) pro-form: HHGGEHFEGEKVFRVNVEDENHINIIRELASTTQIDFWKPDSVTQIKPHSTVDFRVKAEDTVTVENVLKQNELQYKVLISNLRNVVEAQFDSRVRATGHSYEKYNKWETIEAWTQQVATENPALISRSVIGTTFEGRAIYLLKVGKAGQNKPAIFMDCGFHAREWISPAFCQWFVREAVRTYGREIQVTELLDKLDFYVLPVLNIDGYIYTWTKSRFWRKTRSTHTGSSCIGTDPNRNFDAGWCEIGASRNPCDETYCGPAAESEKETKALADFIRNKLSSIKAYLTIHSYSQMMIYPYSYAYKLGENNAELNALAKATVKELASLHGTKYTYGPGATTIYPAAGGSDDWAYDQGIRYSFTFELRDTGRYGFLLPESQIRATCEETFLAIKYVASYVLEHLY",hydrolysis of the Hipp-Arg substrate,[1]; after activation with trypsin 700 μg/ml,complete hydrolysis
